Legend:
[1] = target: T1, full length cynomolgus BTLA expressed on Jurkat cells (cynomolgus monkey, UniProt Q7Z6A9 31-289 (human entry)); test: cell-based or functional assay
T1 chain: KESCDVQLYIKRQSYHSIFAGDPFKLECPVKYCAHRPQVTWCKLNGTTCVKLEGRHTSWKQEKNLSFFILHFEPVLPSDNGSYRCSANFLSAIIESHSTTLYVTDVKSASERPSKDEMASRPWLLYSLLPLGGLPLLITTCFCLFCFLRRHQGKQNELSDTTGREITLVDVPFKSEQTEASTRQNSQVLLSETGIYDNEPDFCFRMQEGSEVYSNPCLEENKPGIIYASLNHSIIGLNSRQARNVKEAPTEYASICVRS

[2] = target: chimeric BTLA of humanised-BTLA mice (human extracellular region, murine transmembrane and signaling … (human; mouse, UniProt Q7TSA3 184-306, limits assumed); test: cell-based or functional assay
[3] = target: T1, full length cynomolgus BTLA expressed …; test: flow cytometry, BTLA Jurkat cells
Protocol: A lentiviral transfection system was used to express full length human or cynomolgus BTLA in a Jurkat T cell line. 1×10⁵ cells per well were plated in 96 well U-bottom plates. […] Secondary antibody was incubated for 30 minutes on ice, then cells were washed and resuspended in FACS buffer for analysis on a flow cytometer. The geometric mean fluorescent intensity of secondary antibody was plotted for each concentration and the EC50 for receptor binding calculated by non-linear curve fitting using GraphPad Prism software.
The ability of the BTLA agonist antibodies of the present invention to bind to human or cynomolgus BTLA expressed on the cell surface was assessed by flow cytometry. A lentiviral transfection system was used to express full length human or cynomolgus BTLA in a Jurkat T cell line. 1×10⁵ cells per well were plated in 96 well U-bottom plates.

[4] = target: T2, soluble cynomolgus macaque BTLA extracellular domain (BTLA K31-R151) (cynomolgus macaque); test: SPR 37C, mAb captured, BTLA ECD analyte;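 note: Anti-BTLA mouse antibodies captured on a sensor chip via polyclonal anti-mouse IgG, isotype control antibody in reference channel, rates fitted after reference and blank subtraction to derive Kd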
T2 construct: also called cynomolgus BTLA; cyno BTLA
T2 chain: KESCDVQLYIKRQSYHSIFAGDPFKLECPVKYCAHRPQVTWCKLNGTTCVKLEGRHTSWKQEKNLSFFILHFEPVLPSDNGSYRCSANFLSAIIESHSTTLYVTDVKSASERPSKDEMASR
Protocol: (§1) Mouse antibody capture kit (GE Healthcare) was used to coat a Series S CMS Sensor Chip (GE Healthcare) with polyclonal anti-mouse IgG. Anti-BTLA antibody was then captured onto the biosensor surface and a negative control antibody (clone Mopc21; Biolegend) captured in the reference channel. […] Association and dissociation rates were fitted using BiaEvaluation Software (GE Healthcare) after reference and blank subtractions, and dissociation constants were calculated (FIG. 1b).

[5] = target: T2, soluble cynomolgus macaque BTLA …; test: SPR (Biacore T200), single cycle kinetics at 37 C, antibody captured on anti-mouse IgG, soluble BTLA extracellular domain as analyte
Protocol: as §1

L123R = target: T3, L123R (Mus musculus); test: flow cytometry, GFP-positive transfected HEK-293T cells, fluorochrome-conjugated antibody at 10 ug/ml, Geo-mean relative to wild type;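 note: cells express mutant human BTLA ectodomain fused to murine CD28 transmembrane and cytoplasmic parts, stained 48 h after transfection for 1 h at 4 °C alongside a Live/Dead dye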
T3 construct: transmembrane and intracellular regions; also called BTLA L123R construct
Protocol: (§2) Constructs encoding the human extracellular region of BTLA with the transmembrane and intracellular regions of murine CD28 were cloned into the bi-cistronic mammalian expression vector pGFP2-n2 (BioSignal Packard Ltd), which also encodes GFP. […] Mock and no-transfection controls were included with each experiment. Cells were harvested at 48 hours and stained with fluorochrome-conjugated anti-BTLA antibody at 10 μg/ml, alongside a Live/Dead marker, in PBS, 0.05% azide, 2% FCS (FACS buffer) for 1 h at 4° C. Cells were washed, pelleted and resuspended in 200 μl FACS buffer before being analysed on a BD FACSCanto flow cytometer. […] For each mutant the Geo-mean of anti-BTLA antibody binding to transfected cells was expressed as a percentage of binding to the wild-type receptor (FIG. 3b). A panel of anti-BTLA antibodies was assessed and any mutation that eliminated binding of all antibodies was excluded from the analysis, on the assumption that such mutations lead to drastic changes in protein folding or expression rather than indicating an antibody epitope.

D52R = target: T4, D52R (Mus musculus); test: as above
T4 construct: transmembrane and intracellular regions; also called BTLA D52R construct
Protocol: as §2

L106R = target: T5, L106R (Mus musculus); test: as above
T5 construct: transmembrane and intracellular regions; also called BTLA L106R construct
Protocol: as §2

Q86R = target: T6, Q86R (Mus musculus); test: as above
T6 construct: transmembrane and intracellular regions; also called BTLA Q86R construct
Protocol: as §2

H68E = target: T7, H68E (Mus musculus); test: as above
T7 construct: transmembrane and intracellular regions; also called BTLA H68E construct
Protocol: as §2

E57R = target: T8, E57R (Mus musculus); test: as above
T8 construct: transmembrane and intracellular regions; also called BTLA E57R construct
Protocol: as §2

K81L = target: T9, K81L (Mus musculus); test: as above
T9 construct: transmembrane and intracellular regions; also called BTLA K81L construct
Protocol: as §2

E83R = target: T10, E83R (Mus musculus); test: as above
T10 construct: transmembrane and intracellular regions; also called BTLA E83R construct
Protocol: as §2

E45R = target: T11, E45R (Mus musculus); test: as above
T11 construct: transmembrane and intracellular regions; also called BTLA E45R construct
Protocol: as §2

Y132R = target: T12, Y132R (Mus musculus); test: as above
T12 construct: transmembrane and intracellular regions; also called BTLA Y132R construct
Protocol: as §2

Q120R = target: T13, Q120R (Mus musculus); test: as above
T13 construct: transmembrane and intracellular regions; also called BTLA Q120R construct
Protocol: as §2

S121R = target: T14, S121R (Mus musculus); test: as above
T14 construct: transmembrane and intracellular regions; also called BTLA S121R construct
Protocol: as §2

A64R = target: T15, A64R (Mus musculus); test: as above
T15 construct: transmembrane and intracellular regions; also called BTLA A64R construct
Protocol: as §2

E55R = target: T16, E55R (Mus musculus); test: as above
T16 construct: transmembrane and intracellular regions; also called BTLA E55R construct
Protocol: as §2

Q43R = target: T17, Q43R (Mus musculus); test: as above
T17 construct: transmembrane and intracellular regions; also called BTLA Q43R construct
Protocol: as §2

E92R = target: T18, E92R (Mus musculus); test: as above
T18 construct: transmembrane and intracellular regions; also called BTLA E92R construct
Protocol: as §2

T12 sequence (Q7Z6A9 31-151 Y132R): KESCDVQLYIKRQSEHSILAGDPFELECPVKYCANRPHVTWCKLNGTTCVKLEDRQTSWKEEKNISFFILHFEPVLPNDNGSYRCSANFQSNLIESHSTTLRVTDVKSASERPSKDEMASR
T8 sequence (Q7Z6A9 31-151 E57R): as the sequence (Q7Z6A9 31-151 Y132R) above, with E27R, R102Y counted along it
chimeric BTLA of humanised-BTLA mice (human extracellular region, murine transmembrane and signaling …, sequence (Q7TSA3 other isoform, or with tags, fused parts or gaps mutant limits assumed): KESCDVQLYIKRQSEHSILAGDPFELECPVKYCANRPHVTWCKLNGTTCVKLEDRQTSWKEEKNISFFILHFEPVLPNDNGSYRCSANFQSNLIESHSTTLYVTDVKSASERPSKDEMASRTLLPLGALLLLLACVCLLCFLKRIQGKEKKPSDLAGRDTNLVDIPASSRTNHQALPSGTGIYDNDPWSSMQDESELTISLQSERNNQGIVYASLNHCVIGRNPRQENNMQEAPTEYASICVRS
T14 sequence (Q7Z6A9 31-151 S121R): as the sequence (Q7Z6A9 31-151 Y132R) above, with S91R, R102Y counted along it
T17 sequence (Q7Z6A9 31-151 Q43R): as the sequence (Q7Z6A9 31-151 Y132R) above, with Q13R, R102Y counted along it
T11 sequence (Q7Z6A9 31-151 E45R): as the sequence (Q7Z6A9 31-151 Y132R) above, with E15R, R102Y counted along it

B1: 2.8.6 (antibody, V domains shown)
VH: QVQLKESGPGLVAPSQSLSITCTVSGFSLTTYGVHWVRQSPGKGLEWLGVMWPGGRTSYNPAPMSRLSISKDNSKSQVFLKMNSLQTDDTAMYYCVRGDYEYDYYAMDYWGQGTSVTVSS
VL: QIVLSQSPAILSASPGEKVTMTCRASSSVSYMHWYQQKPGSSPKPWIYATSNLASGVPARFSGSGSGTSYSLTISRMEAEDAATYYCHQWSSNPYTFGGGTKLEIK
notes: mouse IgG1k hybridoma antibody; also called clone 2.8.6
inhibition of NFkB-GFP reporter, IC50 [1]: 0.22 nM | inhibition of CD4 T cell proliferation in MLR, IC50 [2]: 0.029 nM | EC50 [3]: 0.16 nM | Kd [4]: 7.89 nM | koff [5]: 0.00627 s⁻¹ | kon [5]: 795000 M⁻¹ s⁻¹ | binding as % of binding to wild-type BTLA (L123R): 97.4% | binding as % of binding to wild-type BTLA (D52R): 70.2% | binding as % of binding to wild-type BTLA (L106R): 80.4% | binding as % of binding to wild-type BTLA (Q86R): 97.9% | binding as % of binding to wild-type BTLA (H68E): 126% | binding as % of binding to wild-type BTLA (E57R): 76.3% | binding as % of binding to wild-type BTLA (K81L): 90.3% | binding as % of binding to wild-type BTLA (E83R): 98.8% | binding as % of binding to wild-type BTLA (E45R): 96.3% | binding as % of binding to wild-type BTLA (Y132R): 68.2% | binding as % of binding to wild-type BTLA (Q120R): 76.3% | binding as % of binding to wild-type BTLA (S121R): 67.9% | binding as % of binding to wild-type BTLA (A64R): 93.5% | binding as % of binding to wild-type BTLA (E55R): 52% | binding as % of binding to wild-type BTLA (Q43R): 87.9% | binding as % of binding to wild-type BTLA (E92R): 62.2%

B2: 11.5.1 (antibody, V domains shown)
VH: EVQLQESGPSLVKPSQTLSLTCSVTGDSITSAYWNWIRKFPGNKLEYMGYISYSGSTYFNPSLKSRISITRNTSKNQYYLQLNSVTTEDTATYYCARSHYYGYYFDYWGHGTTLTVSS
VL: DIVLTQSPASLAVSLGQRATISCRASETIDSYGDSLMHWYQQKAGQPPKLLIYRASNLESGIPARFSGSGSRTDFTLTINPVEADDVATYYCQQTDEDPYTFGGGTKLEIK
notes: mouse IgG1k hybridoma antibody
inhibition of NFkB-GFP reporter, IC50 [1]: 0.14 nM | inhibition of CD4 T cell proliferation in MLR, IC50 [2]: 0.016 nM | EC50 [3]: 0.0057 nM | Kd [4]: 0.99 nM | Kd [5]: 0.995 nM | koff [5]: 0.000952 s⁻¹ | kon [5]: 957000 M⁻¹ s⁻¹ | binding as % of binding to wild-type BTLA (L123R): 116% | binding as % of binding to wild-type BTLA (D52R): 129% | binding as % of binding to wild-type BTLA (L106R): 135% | binding as % of binding to wild-type BTLA (Q86R): 132% | binding as % of binding to wild-type BTLA (H68E): 81.3% | binding as % of binding to wild-type BTLA (E57R): 108% | binding as % of binding to wild-type BTLA (K81L): 116% | binding as % of binding to wild-type BTLA (E83R): 95.5% | binding as % of binding to wild-type BTLA (E45R): 108% | binding as % of binding to wild-type BTLA (Y132R): 68.1% | binding as % of binding to wild-type BTLA (Q120R): 89.9% | binding as % of binding to wild-type BTLA (S121R): 42.5% | binding as % of binding to wild-type BTLA (A64R): 148% | binding as % of binding to wild-type BTLA (E55R): 60.5% | binding as % of binding to wild-type BTLA (Q43R): 55.2% | binding as % of binding to wild-type BTLA (E92R): 73.3%

Reference: patent US20230235058A1 (OXFORD UNIVERSITY INNOVATION, published 2023)
